{"source": "paper doi:10.1101/2025.11.11.687647", "about": "(bioRxiv, 2025)", "biological_target": "the molecule itself", "assay": "SEC"}
{"protein": "Mycobacterium tuberculosis pyruvate carboxylase (MtPC), full-length (enzyme) MFSKVLVANRGEIAIRAFRAAYELGVGTVAVYPYEDRNSQHRLKADESYQIGDIGHPVHAYLSVDEIVATARRAGADAIYPGYGFLSENPDLAAACAAAGISFVGPSAEVLELAGNKSRAIAAAREAGLPVLMSSAPSASVDELLSVAAGMPFPLFVKAVAGGGGRGMRRVGDIAALPEAIEAASREAESAFGDPTVYLEQAVINPRHIEVQILADNLGDVIHLYERDCSVQRRHQKVIELAPAPHLDAELRYKMCVDAVAFARHIGYSCAGTVEFLLDERGEYVFIEMNPRVQVEHTVTEEITDVDLVASQLRIAAGETLEQLGLRQEDIAPHGAALQCRITTEDPANGFRPDTGRISALRTAGGAGVRLDGSTNLGAEISPYFDSMLVKLTCRGRDLPTAVSRARRAIAEFRIRGVSTNIPFLQAVLDDPDFRAGRVTTSFIDERPQLLTARASADRGTKILNFLADVTVNNPYGSRPSTIYPDDKLPDLDLRAAPPAGSKQRLVKLGPEGFARWLRESAAVGVTDTTFRDAHQSLLATRVRTSGLSRVAPYLARTMPQLLSVECWGGATYDVALRFLKEDPWERLATLRAAMPNICLQMLLRGRNTVGYTPYPEIVTSAFVQEATATGIDIFRIFDALNNIESMRPAIDAVRETGSAIAEVAMCYTGDLTDPGEQLYTLDYYLKLAEQIVDAGAHVLAIKDMAGLLRPPAAQRLVSALRSRFDLPVHLHTHDTPGGQLASYVAAWHAGADAVDGAAAPLAGTTSQPALSSIVAAAAHTEYDTGLSLSAVCALEPYWEALRKVYAPFESGLPGPTGRVYHHEIPGGQLSNLRQQAIALGLGDRFEEIEEAYAGADRVLGRLVKVTPTSKVVGDLALALVGAGVSADEFASDPARFGIPESVLGFLRGELGDPPGGWPEPLRTAALAGRGAARPTAQLAADDEIALSSVGAKRQATLNRLLFPSPTKEFNEHREAYGDTSQLSANQFFYGLRQGEEHRVKLERGVELLIGLEAISEPDERGMRTVMCILNGQLRPVLVRDRSIASAVPAAEKADRGNPGHIAAPFAGVVTVGVCVGERVGAGQTIATIEAMKMEAPITAPVAGTVERVAVSDTAQVEGGDLLVVVS", "values": [{"measurement": "stoichiometry N", "value": 4}]}
